Experimental data published in article PMC11334799.
pKd: −log10 of the molar value.

What was measured:
human C3b (human) [1] = molecular target: human C3b (human) (UniProt P01024); assay: BLI
human C3b (human) [2] = molecular target: human C3b (human) (UniProt P01024)

human C3b (human), sequence (P01024 23-667, chain 1 of 2): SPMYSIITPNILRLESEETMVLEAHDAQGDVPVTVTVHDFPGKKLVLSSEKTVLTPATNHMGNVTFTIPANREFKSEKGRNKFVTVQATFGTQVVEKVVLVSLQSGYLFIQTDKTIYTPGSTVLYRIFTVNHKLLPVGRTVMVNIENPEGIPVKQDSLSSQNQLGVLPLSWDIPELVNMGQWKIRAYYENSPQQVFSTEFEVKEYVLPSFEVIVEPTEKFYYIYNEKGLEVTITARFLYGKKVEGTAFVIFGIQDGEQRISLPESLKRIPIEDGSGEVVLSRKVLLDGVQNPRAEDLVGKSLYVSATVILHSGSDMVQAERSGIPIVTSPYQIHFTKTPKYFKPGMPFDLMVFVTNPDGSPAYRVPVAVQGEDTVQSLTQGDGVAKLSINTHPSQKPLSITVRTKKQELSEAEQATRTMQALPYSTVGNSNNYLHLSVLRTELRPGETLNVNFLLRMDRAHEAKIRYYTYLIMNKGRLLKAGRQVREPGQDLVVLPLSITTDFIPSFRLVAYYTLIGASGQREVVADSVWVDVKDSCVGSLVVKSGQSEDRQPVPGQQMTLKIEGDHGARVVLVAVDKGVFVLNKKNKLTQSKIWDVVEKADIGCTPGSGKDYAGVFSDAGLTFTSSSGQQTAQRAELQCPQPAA
human C3b (human), sequence (P01024 749-1663, chain 2 of 2): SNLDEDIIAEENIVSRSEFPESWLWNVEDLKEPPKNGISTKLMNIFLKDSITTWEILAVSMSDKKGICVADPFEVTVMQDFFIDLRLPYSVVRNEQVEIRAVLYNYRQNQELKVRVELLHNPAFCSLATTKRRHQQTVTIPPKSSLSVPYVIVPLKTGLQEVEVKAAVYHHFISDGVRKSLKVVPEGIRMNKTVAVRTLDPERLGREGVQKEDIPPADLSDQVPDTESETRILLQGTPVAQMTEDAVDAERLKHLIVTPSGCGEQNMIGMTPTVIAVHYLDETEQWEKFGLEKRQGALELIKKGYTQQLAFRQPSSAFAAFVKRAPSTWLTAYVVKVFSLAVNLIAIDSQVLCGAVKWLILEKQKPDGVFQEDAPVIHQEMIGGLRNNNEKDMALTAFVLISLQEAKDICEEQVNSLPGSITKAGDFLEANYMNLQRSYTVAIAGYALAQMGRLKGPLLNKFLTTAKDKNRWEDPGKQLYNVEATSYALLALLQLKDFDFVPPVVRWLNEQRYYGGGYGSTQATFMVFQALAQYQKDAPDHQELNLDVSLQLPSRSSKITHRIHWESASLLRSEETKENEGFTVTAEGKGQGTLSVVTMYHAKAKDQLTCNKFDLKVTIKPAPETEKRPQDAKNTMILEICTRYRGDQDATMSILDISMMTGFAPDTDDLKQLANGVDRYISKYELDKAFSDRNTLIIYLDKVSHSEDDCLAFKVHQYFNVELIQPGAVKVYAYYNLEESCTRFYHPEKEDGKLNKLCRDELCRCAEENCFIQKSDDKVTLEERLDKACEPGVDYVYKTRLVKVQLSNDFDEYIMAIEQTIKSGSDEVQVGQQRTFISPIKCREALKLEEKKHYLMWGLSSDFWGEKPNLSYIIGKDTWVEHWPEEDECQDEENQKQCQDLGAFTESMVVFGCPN

In the case of “CG001, (CRIg-FH-IgG4 Fc) x2 (from UniProt Q9Y279 20-283; P08603 18-264) (Fc fusion)”, the pKd (human C3b (human) [1]) was 8.37, the AP-mediated hemolysis of rabbit erythrocytes (12% NHS), IC50 (human C3b (human) [2]) was 0.0889 µM and the AP-mediated hemolysis of rabbit erythrocytes (12% NHS), IC95 (human C3b (human) [2]) was 0.207 µM. It also gave a CP-mediated hemolysis of sheep erythrocytes (0.2% hemolysin, 1% NHS), IC50 (human C3b (human) [2]) of 0.446 µM and a CP-mediated hemolysis of sheep erythrocytes (0.2% hemolysin, 1% NHS), IC95 (human C3b (human) [2]) of 34.2 µM.
